Results published in PMC5382158 (Frontiers in Cellular and Infection Microbiology, 2017).

Key:
[1] = molecular target: NarI-T25 (M. tuberculosis); test: two-hybrid
Rv2617c-T25 = molecular target: T1, Rv2617c-T25 (M. tuberculosis, UniProt I6XER9 1-146); test: two-hybrid; settings: partners not purified
T1 sequence: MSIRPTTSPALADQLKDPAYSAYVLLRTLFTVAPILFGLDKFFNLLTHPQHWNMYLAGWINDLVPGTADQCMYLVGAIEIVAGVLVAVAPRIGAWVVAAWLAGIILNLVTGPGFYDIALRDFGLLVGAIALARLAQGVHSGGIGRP

Molecule | β-galactosidase activity [1] [Miller units] | β-galactosidase activity (Rv2617c-T25) [Miller units]
KdpF-T18 (peptide) | 1200 | –
MTTVDNIVGLVIAVALMAFLFAALLFPEKF [KdpF-T18] | – | 2030
